Where two headings read alike, the source gives them in different places.
Biological target: T1, PP2A (Homo sapiens, UniProt P67775)
T1 construct: purchased LSBio
Experiment: BLI: PP2A analyte binding to immobilized Caspase 9 (Protein A biosensor, anti-Caspase 9)
Protocol: Kinetic analysis was performed based on biolayer interferometry (BLI) by using a BLItz instrument (ForteBio, Bayonne, France) at room temperature. Prior to use, each biosensor was hydrated in sample diluent (SD: PBS1X, pH 7.0, 0.02% Tween 20, 0.1% BSA) for at least 10 min. Kinetic measurements of PP2A/Caspase 9 interactions were run with Protein A biosensors (Fortebio) and consisted of seven steps, all performed in reaction buffer, as follows: (i) initial baseline in 300 µL SD for 30 s was measured; (ii) 4 µL of mouse anti-Caspase 9 or rabbit anti-PP2A were immobilized on the sensor for 150 s at 133 nM; (iii) the immunosensor was washed with 300 µL SD for 120 s; (iv) 4 µL of purified ligand Caspase 9 at 566 nM (Origen) or PP2A at 694 nM (LSBio) were loaded on the immunosensor for 150 s; (v) the ligand-coated immunosensor was washed with 300 µL SD for 120 s; (vi) association of purified analytes diluted in SD at the mentioned concentrations was studied for 150 s in 4 µL; and (vii) dissociation step was then monitored in 300 µL SD for 120 s.
Experiments using empty immunosensors (no ligand loaded) were run as control. Sensorgrams were fit globally to a 1:1 binding model by BLItz Pro software, from which the association (kon) and dissociation (koff) rate constants and apparent affinities (KD) were calculated. […]

T1 sequence (P67775 whole entry): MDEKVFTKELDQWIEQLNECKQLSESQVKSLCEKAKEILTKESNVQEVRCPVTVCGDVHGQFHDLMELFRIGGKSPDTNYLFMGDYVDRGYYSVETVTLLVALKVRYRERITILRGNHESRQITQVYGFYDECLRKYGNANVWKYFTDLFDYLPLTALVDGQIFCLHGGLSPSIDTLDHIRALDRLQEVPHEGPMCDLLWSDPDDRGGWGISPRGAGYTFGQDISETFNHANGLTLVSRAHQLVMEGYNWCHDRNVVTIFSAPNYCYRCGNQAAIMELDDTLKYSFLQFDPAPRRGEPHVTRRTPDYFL

- Kd (discussion summary of PP2A/Caspase 9 BLI studies, in the range of, read-out: binding affinity of PP2A to Caspase 9): ~150 nM
- Kd (summary: close to, PP2A analyte on immobilized Caspase 9, read-out: affinity, both models): ~100 nM
B1: Caspase 9: purified Caspase 9 protein (Origen), cysteine protease, initiator of intrinsic apoptosis (protein)
chain: MDEADRRLLRRCRLRLVEELQVDQLWDALLSRELFRPHMIEDIQRAGSGSRRDQARQLIIDLETRGSQALPLFISCLEDTGQDMLASFLRTNRQAAKLSKPTLENLTPVVLRPEIRKPEVLRPETPRPVDIGSGGFGDVGALESLRGNADLAYILSMEPCGHCLIINNVNFCRESGLRTRTGSNIDCEKLRRRFSSLHFMVEVKGDLTAKKMVLALLELAQQDHGALDCCVVVILSHGCQASHLQFPGAVYGTDGCPVSVEKIVNIFNGTSCPSLGGKPKLFFIQACGGEQKDHGFEVASTSPEDESPGSNPEPDATPFQEGLRTFDQLDAISSLPTPSDIFVSYSTFPGFVSWRDPKSGSWYVETLDDIFEQWAHSEDLQSLLLRVANAVSVKGIYKQMPGCFNFLRKKLFFKTS
modifications: Commercial purified Caspase 9 (Origen)

Source: paper PMC9609871, “Binding and Kinetic Analysis of Human Protein Phosphatase PP2A Interactions with Caspase 9 Protein and the Interfering Peptide C9h” (Pharmaceutics, 2022)
